Laboratory results as given in US20180245061A1, “Modified Heterocyclase” (THE UNIVERSITY COURT OF THE UNIVERSITY OF ABERDEEN, priority 2014, published 2018).

How the values were obtained:
full-length PatE = test: Heterocyclization of full length PatE substrate (core sequence ITVCISVC), MALDI-TOF-MS; format: biochemical; settings: MALDI-TOF-MS (FIG. 9)
Description: Reaction Zoomed view with reaction products identified. The mass of the starting material is 6983.8 Da.

[1] = target: T1, full-length PatE'4 leader peptide (tryptic fragment of PatE' D2Y, K3E, K4E, R16E)
T1 chain: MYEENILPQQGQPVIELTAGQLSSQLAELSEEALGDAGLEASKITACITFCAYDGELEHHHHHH

[2] = target: T2, minimal leader LAELSEEAL synthetic peptide
T2 chain: LAELSEEAL

PatE' L26R [3] = target: T3, PatE' L26R; test: ITC, 20 C
T3 peptide: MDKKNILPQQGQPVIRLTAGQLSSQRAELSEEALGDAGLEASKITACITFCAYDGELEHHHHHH

PatE' L29R = target: T4, PatE' L29R; test: ITC, 20 C
T4 construct: Point mutant of PatE'
T4 peptide: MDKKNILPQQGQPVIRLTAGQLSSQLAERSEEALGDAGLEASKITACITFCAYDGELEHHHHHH

PatE' E31R = target: T5, PatE' E31R; test: ITC, 20 C
T5 construct: Point mutant of PatE'
T5 peptide: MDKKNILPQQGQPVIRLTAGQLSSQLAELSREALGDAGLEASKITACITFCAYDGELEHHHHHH

[4] = target: the molecule itself; test: X-ray crystal structures; gel filtration suggested a dimer
[5] = target: T6, PatE' (precursor peptide PatE variant, 64 amino acids, full leader, single core peptide ITACITFC, C-terminal …); test: ITC, 20 C, one-site model with stoichiometry set to 1; LynD in the cell, peptide in the syringe
T6 peptide: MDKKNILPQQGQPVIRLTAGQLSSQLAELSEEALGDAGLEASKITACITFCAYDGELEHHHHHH

PatE' E32R [6] = target: T7, PatE' E32R; test: as above
T7 construct: Point mutant of PatE'
T7 peptide: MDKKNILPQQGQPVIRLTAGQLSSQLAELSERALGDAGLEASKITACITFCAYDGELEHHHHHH

PatE' C51A = target: T8, PatE' C51A; test: X-ray co-crystal structures LynD/ATP/PatE'C51A (2.14 A) and LynD/beta,gamma-imido-ATP/PatE'C51A (3.01 A)
T8 peptide: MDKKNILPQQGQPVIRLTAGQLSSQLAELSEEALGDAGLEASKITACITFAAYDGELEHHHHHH

PatE′ = test: Heterocyclization reaction with PatE′, MS analysis; format: biochemical; settings: 2 μM enzyme, 5 mM ATP, 5 mM MgCl2, 16 h at 37° C.; TABLE 2
Procedure: (§1) For all heterocyclization reactions, […] PatE′ (and variants,) was incubated with 2 μM enzyme in 150 mM NaCl, 10 mM HEPES pH 7.4, 1 mM TCEP, 5 mM ATP and 5 mM MgCl2 for 16 h at 37° C. Samples were analyzed by ESI or MALDI MS (LCT, Micromass or 4800 MALDI TOF/TOF Analyzer, ABSciex). For cis trans activation studies, 100 μM ITACITFCAYDG synthetic test peptide (Peptide Protein Research Ltd) was reacted with 5 μM heterocyclase enzyme in the presence and absence of 5.5 μM LAELSEEAL synthetic peptide, or 5.5 μM full-length PatE′4 leader peptide. The reaction was carried out in 150 mM NaCl, 10 mM HEPES pH 7.4, 1 mM TCEP, 5 mM ATP and 5 mM MgCl2 for 16 h at 37° C. and analyzed as above. Synthetic peptides were purchased from Peptide Protein Research Ltd.

PatE′ L26R = test: Heterocyclization reaction with PatE′ L26R; format: biochemical; settings: 2 μM enzyme, 5 mM ATP, 5 mM MgCl2, 16 h at 37° C.
Procedure: as §1

[7] = target: T6, PatE' (precursor peptide PatE variant, …); test: ITC, 20 C, one-site model with stoichiometry set to 1; LynD mutant in the cell, peptide in the syringe
PatE' L26R [8] = target: T3, PatE' L26R; test: as above
PatE′ E32R = test: Heterocyclization reaction with PatE′ E32R; format: biochemical; settings: 2 μM enzyme, 5 mM ATP, 5 mM MgCl2, 16 h at 37° C.
Procedure: as §1

PatE' E32R [9] = target: T7, PatE' E32R; test: ITC, 20 C, one-site model with stoichiometry set to 1; LynD mutant in the cell, peptide in the syringe

B1: MicD-Q21-5G: fused-MicD: leader from Q21, 5 GA repeats linker, KL, MicD (SEQ ID NO: 40) (protein)
chain: MSHHHHHHDYDENLYFQGSQLSSQLAELSEEALGDAGAGAGAGAGAKLMQSTPLLQIQPHFHVEVIEPKQVYLLGEQANYALTGQLYCQILPLLDGQHSREQIVEKLDGEVPSEYIDYVLDRLAEKGYLTEAAPELSSEVAAFWSELGIAPPVAAEALRQSVTLTPVGNISEVTVAALTTALRDIGISVQTPTEAGSPTALNVVLTDDYLQPELAKINKQALESQQTWLLVKPVGSVLWLGPVFVPGKTGCWDCLAHRLRGNREVEASVLQQKQAQQQRNGQSGSVIGCLPTARATLPSTLQTGLQFAATEIAKWIVKHHVKATAPGTVFFPTLDGKIITFNHTVIDLKSHVLVRRSQCPSCGDRQILHRQGFEPVKLVSRRKHFTHDGGHRAFTPEQTVQKYQHLVSPITGVVTELVRLTDPANPLVHTYKAGHAFGSATTLRGLRNTLKYKSSGKGKTDIQSRASGLCEAIERYSGIFQGDEPRKRATLAELGDLALHPESLLYFSNTQYANREELNAQGSAAAYRWIPNRFDVSQAIDWTPVWSLTEQKHKYVPTAFCYYGYPLPEEQRFCKADSNGNAAGNTLEEAILQGFLELVERDSIAMWWYNRIRRPAVDLSTFDEPYFVDLQQFYQQQNRELWVLDVTADLGIPAFAGFSRRTVGTSERISIGFGAHLDPTIAILRALTEVSQVGLELDKIPDDKLDGESKDWMLNVTVENHPWLAPDPSVPMKTASDYPKRWSDDIHTDVMNCVKTAQTAGLEVMVLDQTRPDIGLNVVKVIIPGMRTFWTRFGQGRLYDIPVKLGWLDAPLAEEELNQTNIPF
modifications: Modified heterocyclase MicroD_Q21_5GA
- heterocyclization of full-length PatE (full-length PatE): inefficiently and produce a mixture of different heterocyclic species

B2: LynD heterocyclase, full-length (Lyngbya sp. PCC 8106) (enzyme)
chain: MQSTPLLQIQPHFHVEVIEPKQVYLLGEQANHALTGQLYCQILPLLNGQYTLEQIVEKLDGEVPPEYIDYVLERLAEKGYLTEAAPELSSEVAAFWSELGIAPPVAAEALRQPVTLTPVGNISEVTVAALTTALRDIGISVQTPTEAGSPTALNVVLTDDYLQPELAKINKQALESQQTWLLVKPVGSVLWLGPVFVPGKTGCWDCLAHRLRGNREVEASVLRQKQAQQQRNGQSGSVIGCLPTARATLPSTLQTGLQFAATEIAKWIVKYHVNATAPGTVFFPTLDGKIITLNHSILDLKSHILIKRSQCPTCGDPKILQHRGFEPLKLESRPKQFTSDGGHRGTTPEQTVQKYQHLISPVTGVVTELVRITDPANPLVHTYRAGHSFGSATSLRGLRNTLKHKSSGKGKTDSQSKASGLCEAVERYSGIFQGDEPRKRATLAELGDLAIHPEQCLCFSDGQYANRETLNEQATVAHDWIPQRFDASQAIEWTPVWSLTEQTHKYLPTALCYYHYPLPPEHRFARGDSNGNAAGNTLEEAILQGFMELVERDGVALWWYNRLRRPAVDLGSFNEPYFVQLQQFYRENDRDLWVLDLTADLGIPAFAGVSNRKTGSSERLILGFGAHLDPTIAILRAVTEVNQIGLELDKVPDENLKSDATDWLITEKLADHPYLLPDTTQPLKTAQDYPKRWSDDIYTDVMTCVNIAQQAGLETLVIDQTRPDIGLNVVKVTVPGMRHFWSRFGEGRLYDVPVKLGWLDEPLTEAQMNPTPMPF
notes: also called native LynD; cyanobactin heterocyclase LynD
- acceleration of the turnover of the test peptide […] (trans activation, MALDI TOF MS time course) [1]: 6.7- and 5.0-fold, respectively
- acceleration of the turnover of the test peptide […] (trans activation, MALDI TOF MS time course) [2]: 6.7- and 5.0-fold, respectively
- binding result (PatE' L26R [3]): no binding
- binding result (PatE' L29R): no binding
- binding result (PatE' E31R): no binding
- binding result [4]: binds
- Kd [5]: 1.49 µM
- Kd (PatE' E32R [6]): 18.4 µM
- binding result (PatE' C51A): binds

B3: LynD Y67D (enzyme)
chain: MQSTPLLQIQPHFHVEVIEPKQVYLLGEQANHALTGQLYCQILPLLNGQYTLEQIVEKLDGEVPPEDIDYVLERLAEKGYLTEAAPELSSEVAAFWSELGIAPPVAAEALRQPVTLTPVGNISEVTVAALTTALRDIGISVQTPTEAGSPTALNVVLTDDYLQPELAKINKQALESQQTWLLVKPVGSVLWLGPVFVPGKTGCWDCLAHRLRGNREVEASVLRQKQAQQQRNGQSGSVIGCLPTARATLPSTLQTGLQFAATEIAKWIVKYHVNATAPGTVFFPTLDGKIITLNHSILDLKSHILIKRSQCPTCGDPKILQHRGFEPLKLESRPKQFTSDGGHRGTTPEQTVQKYQHLISPVTGVVTELVRITDPANPLVHTYRAGHSFGSATSLRGLRNTLKHKSSGKGKTDSQSKASGLCEAVERYSGIFQGDEPRKRATLAELGDLAIHPEQCLCFSDGQYANRETLNEQATVAHDWIPQRFDASQAIEWTPVWSLTEQTHKYLPTALCYYHYPLPPEHRFARGDSNGNAAGNTLEEAILQGFMELVERDGVALWWYNRLRRPAVDLGSFNEPYFVQLQQFYRENDRDLWVLDLTADLGIPAFAGVSNRKTGSSERLILGFGAHLDPTIAILRAVTEVNQIGLELDKVPDENLKSDATDWLITEKLADHPYLLPDTTQPLKTAQDYPKRWSDDIYTDVMTCVNIAQQAGLETLVIDQTRPDIGLNVVKVTVPGMRHFWSRFGEGRLYDVPVKLGWLDEPLTEAQMNPTPMPF
- No. of heterocycles, peptide PatE′ (PatE′): 2
- No. of heterocycles, peptide PatE′ L26R (PatE′ L26R): 2
- Kd [7]: 12.9 µM
- Kd (PatE' L26R [8]): 15.2 µM

B4: LynD R399E (enzyme)
chain: MQSTPLLQIQPHFHVEVIEPKQVYLLGEQANHALTGQLYCQILPLLNGQYTLEQIVEKLDGEVPPEYIDYVLERLAEKGYLTEAAPELSSEVAAFWSELGIAPPVAAEALRQPVTLTPVGNISEVTVAALTTALRDIGISVQTPTEAGSPTALNVVLTDDYLQPELAKINKQALESQQTWLLVKPVGSVLWLGPVFVPGKTGCWDCLAHRLRGNREVEASVLRQKQAQQQRNGQSGSVIGCLPTARATLPSTLQTGLQFAATEIAKWIVKYHVNATAPGTVFFPTLDGKIITLNHSILDLKSHILIKRSQCPTCGDPKILQHRGFEPLKLESRPKQFTSDGGHRGTTPEQTVQKYQHLISPVTGVVTELVRITDPANPLVHTYRAGHSFGSATSLRGLENTLKHKSSGKGKTDSQSKASGLCEAVERYSGIFQGDEPRKRATLAELGDLAIHPEQCLCFSDGQYANRETLNEQATVAHDWIPQRFDASQAIEWTPVWSLTEQTHKYLPTALCYYHYPLPPEHRFARGDSNGNAAGNTLEEAILQGFMELVERDGVALWWYNRLRRPAVDLGSFNEPYFVQLQQFYRENDRDLWVLDLTADLGIPAFAGVSNRKTGSSERLILGFGAHLDPTIAILRAVTEVNQIGLELDKVPDENLKSDATDWLITEKLADHPYLLPDTTQPLKTAQDYPKRWSDDIYTDVMTCVNIAQQAGLETLVIDQTRPDIGLNVVKVTVPGMRHFWSRFGEGRLYDVPVKLGWLDEPLTEAQMNPTPMPF
notes: Point mutant of LynD
- No. of heterocycles, peptide PatE′ (PatE′): 2
- No. of heterocycles, peptide PatE′ E32R (PatE′ E32R): 2
- Kd [7]: 10.7 µM
- Kd (PatE' E32R [9]): 8.55 µM
